Like-named read-outs stand apart in the source and are kept apart here.
Experiments:
[1] = Enzymatic properties of PtALD: kinetics constants when using PHOG as substrate; format: biochemical
Procedure: Basic reaction conditions: 50 mM Hepes-KOH (pH 8.0), 2 mM PHOG, 5 mM MgCl2, 3 mM KPB (pH 8), 16 U/ml of lactate dehydrogenase, measure a optical absorbance at 340 nm measured at 30° C.
The aldolase activity increased by 2.7 times as compared with a non-addition lot following addition of 1 mM MgCl2, and increased 2 times as compared with a non-addition lot following addition of 5 mM KPB.

[2] = Synthesis of IHOG from indole-3-pyruvic acid and pyruvic acid using purified PtALD and PcALD; format: biochemical; details: PtALD 1.8 U/ml, PcALD 0.8 U/ml, pH 8.5, 33° C., 4 hours
Procedure: 4-(Indol-3-ylmethyl)-4-hydroxy-2-oxoglutarate (IHOG) was synthesized from indole-3-pyruvic acid and pyruvic acid using the PtALD and PcALD produced in Examples 4 and 5 as enzyme sources. The amount of IHOG was determined by HPLC analysis using the “Inertsil ODS-2” (GL Sciences Inc., 5 μm, 4.6×250 mm). The analysis conditions are as indicated below.
Mobile phase: 40% (v/v) acetonitrile/5 mM tetrabutyl
ammonium dihydrogen phosphate solution
Column temperature: 40° C.
PtALD and PcALD were added at 1.8 U/ml and 0.8 U/ml, respectively, to a reaction solution comprised of 100 mM Hepes-KOH (pH 8.5), 50 mM indole-3-pyruvic acid, 250 mM pyruvic acid and 1 mM to 5 mM MgCl2, and allowed to react at 33° C. for 4 hours. The enzyme reaction solution was suitably diluted and the amount of IHOG formed was quantified. As a result, IHOG was able to be formed from the aldolases.

[3] = Aldol condensation activity of pyruvic acid for various substrates using PtALD (ESI-MS); format: biochemical; details: 50 mM substrate, 250 mM sodium pyruvate, 0.1 mg/ml PtALD, pH 9, 33° C., 2 hours; substrates of Tables 11 and 12
Procedure: The aldol condensation activity of pyruvic acid was measured for the various substrates shown in Table 11 using the PtALD produced in Example 4. A reaction solution was prepared composed of 100 mM glycine-NaOH (pH 9), 50 mM substrate, 250 mM sodium pyruvate, 1 mM MgCl2 and 0.1 mg/ml PtALD, and incubated at 33° C. for 2 hours. The resulting reaction solution was subjected to ultrafiltration with an ultrafiltration membrane, Microcon 10 (Amicon) for a fraction molecular weight of 10000. 2 μl of the filtrate was diluted in 200 μl of 50% acetonitrile/0.1% aqueous ammonia solution followed by ESI-MS analysis.

[4] = Optimum pH of PtALD aldolase activity; format: biochemical; details: at 33° C.
Procedure: More specifically, aldolase activity may be estimated according to the following steps of adding aldolase to a reaction solution composed of 100 mM buffer, 50 mM indole-3-pyruvic acid, 250 mM pyruvic acid, 1 mM MgCl2 and 1% (v/v) toluene; and shaking while reaction at 33° C. for 4 hours; and then quantifying the amount of IHOG formed by HPLC.

[5] = Temperature stability of PtALD (residual activity); format: physicochemical; details: 30 minutes incubation, pH 7.0 and pH 9.0
Procedure: Residual activity was measured under the basic measurement conditions after incubating PtALD at 25 to 70° C. for 30 minutes in 100 mM potassium phosphate buffer (pH 7.0) and 100 mM glycine-NaOH buffer (pH 9.0).

[6] = Aldol condensation activity of PtALD using acetaldehyde and α-ketobutyrate (ESI-MS); format: biochemical; details: 50 mM acetoaldehyde, 250 mM α-ketobutyrate, 0.1 mg/ml PtALD, pH 9, 33° C., 16 hours
Procedure: The aldol condensation activity of the PtALD prepared in Example 4 was measured using acetaldehyde and α-ketobutyrate. A reaction solution composed of 100 mM glycine-NaOH (pH 9), 50 mM acetoaldehyde, 250 mM α-ketobutyrate, 1 mM MgCl2 and 0.1 mg/ml PtALD was prepared, and it was incubated at 33° C. for 16 hours. The resulting reaction solution was subjected to ultrafiltration with an ultrafiltration membrane, Microcon 10 (Amicon) for a fraction molecular weight of 10000. 10 μl of the filtrate was diluted in 200 μl of 50% acetonitrile/0.1% aqueous ammonia solution followed by ESI-MS analysis.

[7] = pH stability of PtALD (residual activity); format: physicochemical; details: 37° C., 30 minutes, 100 mM buffers
Procedure: pH stability was measured over a range of pH 3 to pH 11. The buffers used for measurement were as follows: sodium acetate buffer (pH 3, 4, 5, 6), potassium phosphate buffer (pH 6, 6.5, 7, 7.5), Tris-HCl buffer (pH 7, 7.5, 8, 8.5), glycine-NaOH buffer (pH 9, 9.5, 10), CAPS-NaOH buffer (pH 10, 10.5, 11). The residual activity after incubating PtALD at 37° C. for 30 minutes in each of the buffer solutions at a concentration of 100 mM was measured under the basic reaction conditions.

Molecule | Increase of aldolase activity as compared with a non-addition lot ([1]; addition of 1 mM MgCl2) | Increase of aldolase activity as compared with a non-addition lot ([1]; addition of 5 mM KPB) | Ka (for KPi) ([1]; pH 8.0, 30° C.) | Vmax (for PHOG) ([1]; pH 8.0, 30° C.) | Km ([1]; pH 8.0, 30° C., read-out: Km (for MgCl2)) | Km ([1]; pH 8.0, 30° C., read-out: Km (for PHOG)) | IHOG formed ([2]; MgCl2 1 mM) | IHOG formed ([2]; MgCl2 5 mM) | Formation of pyruvic acid aldol condensates for various substrates [3] | optimum pH [4] | temperature stability [5] | Formation of aldol condensate from acetaldehyde and α-ketobutyrate [6] | pH stability (pH) [7]
PtALD: aldolase derived from Pseudomonas taetrolens ATCC4683, amino acid sequence SEQ ID No: 2 or 3; recombinant, purified in Example 4 (protein, listed as Pseudomonas taetrolens) MEVAMSLPGSRIYPSPPQAPRSLLDAFQNVVTPHISDNLGRHIGARGLTRYNHTGKLVGTALTVKTRPGDNLYIYKALTLIEPGHVLVIDAQGDATNAVIGELIKLYAQQRGCVGFVVDGAIRDVASFEDTPCYARSVVHCGPYKSGPGEINVPVSIGGMIINPGDIIVGDEDGLVAFSPDHAEQVLVKAREHDAHEQQVKAEIATGAIDQSWLDKVLEKAGLAN | 2.7 times | 2 times | 0.95 mM | 91.7 µmol/min/mg | 19 µM | 100 µM | 11.4 mM | 10.5 mM | the desired pyruvic acid aldol condensates were formed | about 9 | ≤ 70 °C | formation of the desired aldol condensate | ≥ 6
PcALD: aldolase derived from Pseudomonas coronafaciens strain AJ2791, amino acid sequence SEQ ID No: 16; recombinant, purified in Example 5 (protein, listed as Pseudomonas coronafaciens) MKCHSVIWFSAWPHPIISREKSHMTIGFRVLSAARKVSPEWVARYRDVPVANVSDSMNRMTAGGSRLRPMHRAGVLAGPALTVKARPGDNLMLHYAIDIAQPGDVIVVDAGGDLTNALIGEMMVAYAVKRGVAGIVINGAIRDAASIGAGDFPMFAAGVSHRGPYKDGPGEINVPIAIDGMVIEAGDLVIGDDDGLLCVPYDQVAEVYDRAAAKHHAEQKQLEQIAKGENDRSWVLESLKKKGCQLPE | – | – | – | – | – | – | 4.9 mM | 5.4 mM | – | – | – | – | –
